# How the values were obtained:
# [1] = system: urothelial carcinoma subjects; experiment: Enfortumab vedotin monotherapy studies of urothelial carcinoma, SAEs of severe cutaneous adverse reactions; format: in vivo, human
# [2] = system: patients receiving enfortumab vedotin; experiment: Reports of severe cutaneous adverse reactions in patients receiving enfortumab vedotin; format: in vivo, human
# Excerpt: These reactions occurred predominantly during the first cycle of treatment. AEs reported in these cases included Stevens-Johnson Syndrome (SJS) (5 cases), blister (3 cases), dermatitis bullous (3 cases), symmetrical drug-related intertriginous and flexural exanthema (SDRIFE; 2 cases), and 1 case each of dermatitis exfoliative, exfoliative rash, epidermal necrosis, oropharyngeal blistering, stomatitis, and toxic epidermal necrolysis (TEN).
# [3] = system: cisplatin-ineligible patients with muscle invasive bladder cancer (MIBC); experiment: Phase 1b/2 study (Cohort H): neoadjuvant EV monotherapy followed by RC+PLND, antitumor activity (pCR, pDS, EFS); format: in vivo, human
# Experimental: Treatment with enfortumab vedotin monotherapy is evaluated in patients with MIBC. This study enrolls approximately 20 patients with cT2-T4aN0M0 MIBC.
# pCR is the primary endpoint and is defined as the absence of viable tumor (pT0N0) in examined tissue from RC+PLND. pCR is assessed by central pathology review after RC+PLND with curative intent. Post-RC restaging is performed via the same radiologic modalities at the first follow-up disease assessment scan (12 weeks after RC+PLND). During the first 2 years on study, follow-up is performed every 12 weeks (±14 days) from RC+PLND until disease progression/recurrence, patient death study closure, or withdrawal of consent, whichever occurs first. After 2 years on study, the frequency of visits including response assessments is reduced to every 24 weeks (±14 days). Tumor imaging should also be performed whenever disease progression is suspected.
# Radiographic disease progression precluding a curative intent surgery noted prior to RC+PLND, failure to undergo RC+PLND for patients with residual muscle invasive disease and/or any radiographic disease present, gross residual disease left behind at time of RC+PLND, local or distant recurrence post-RC as assessed radiographically and/or confirmed with biopsy (local pathology review), or death from any cause are considered EFS events. Patients who are found to have EFS events but are still alive are to transition into long-term follow-up.
# Tumor tissue samples collected from the patient's diagnostic TURBT within 90 days prior to the first dose of study treatment are sent for central pathology review. Tissue samples from RC+PLND will also be sent for central pathology review of pathologic response assessment. Tumor response is assessed after RC+PLND with curative intent by pathology review analysis. Pathologic staging information includes TNM classification, histology, lymph node counts, and surgical margins.
# The pCRR is defined as the proportion of patients having pCR. pCR is defined as the absence of viable tumor (pT0N0) in examined tissue from RC+PLND.
# pDSR is defined as the proportion of patients having pDS. pDS is defined as patients with <pT2 (includes pT0, pTis, pTa, pT1) and N0 in examined tissue from RC+PLND.
# EFS is defined as the time from the start of study treatment to the first occurrence of any of the following events: • Radiographic disease progression precluding a curative intent surgery prior to RC+PLND • Failure to undergo RC+PLND for participants with residual muscle-invasive disease and/or any radiographic disease present • Gross residual disease left behind at time of RC+PLND (surgeon unable to complete curative intent surgery due to unresectable tumor or newly discovered metastatic disease) • Local or distant recurrence post-RC as assessed by CT or MRI and/or biopsy. If biopsy is not feasible due to participant safety, CT/MRI alone is sufficient • Death from any cause
# Patients who refuse surgery but without a post-screening scan are censored at study day 1.
# (§1) The methods for this Section 6.2 (Example 2) were as described in Section 6.1 (Example 1). […] Patients received 3 cycles of neoadjuvant EV (1.25 mg/kg) on Days 1 and 8 of every 3-week cycle prior to RC+PLND. The primary endpoint of the study was pathological complete response rate (pCRR; ypT0N0) by central review. Key secondary endpoints included pathological downstaging (pDS) rate (yp T0, Tis, Ta, T1,N0) and safety.
# [4] = system: cisplatin-ineligible patients with muscle invasive bladder cancer (MIBC); experiment: Phase 1b/2 study (Cohort H): safety, tolerability, exposure and disposition with neoadjuvant EV monotherapy and RC+PLND; format: in vivo, human
# Excerpt: Safety assessments are based on the information collected through the safety surveillance process and will include the data from recorded AEs, including serious adverse events (SAEs), concomitant medications, physical examination findings, cardiac monitoring, and laboratory tests. Safety is monitored over the course of the study by the SMC.
# The safety analysis evaluates the type, incidence, severity, seriousness, and relatedness of AEs, and the type, incidence, and severity of laboratory abnormalities. The incidence, duration, and resolution of AEs of special interest (AESIs) are summarized.
# The assessment of safety during the course of this study will consist of the surveillance and recording of AEs including SAEs, recording of concomitant medication, and measurements of protocol-specified physical examination findings, cardiac monitoring, and laboratory tests.
# AE severity should be graded using the National Cancer Institute's Common Terminology Criteria for Adverse Events (NCI CTCAE), Version 4.03.
# An overview of AEs provide a tabulation, by cohort and overall, of the incidence of all AEs, TEAEs, treatment-related AEs, Grade 3 and higher AEs, SAEs, treatment-related SAEs, deaths, and AEs leading to study treatment discontinuation. AEs are defined as treatment emergent if they are newly occurring or worsen following study treatment.
# AEs are listed and summarized by Medical Dictionary for Regulatory Activities (MedDRA), preferred term, severity, and relationship to study drug. In the event of multiple occurrences of the same AE with the same preferred term in 1 patient, the AE are counted once as the occurrence. The incidence of AEs are tabulated by preferred term and cohorts. AEs leading to premature discontinuation of study drug are summarized and listed in the same manner.
# as §1
# [5] = system: acute myeloid leukemia (AML) at relapse; settings: administered alone; cited from earlier work
# [6] = system: patients with T2 T3bN0M0 MIBC; settings: cited from earlier work
# [7] = system: cisplatin-ineligible patients with T2 T4N0M0 MIBC; settings: cited from earlier work
# [8] = EFS by investigator assessment, EV Mono N = 22
# [9] = Present study, cisplatin ineligible, EV monotherapy x 3 cycles, sample size 22
# [10] = by investigator assessment, N = 22
# [11] = 2 cycles of 1200 mg prior to RC, 69 patients
# [12] = 2 cycles of 1200 mg prior to RC
substance,measurement,setting,value
enfortumab vedotin,SAE of severe cutaneous adverse reaction: SJS,[1]; 749 subjects,0.1%
same,SAE of severe cutaneous adverse reaction: blister,[1]; 749 subjects,0.1%
same,SAE of severe cutaneous adverse reaction: conjunctivitis,[1]; 749 subjects,0.1%
same,SAE of severe cutaneous adverse reaction: dermatitis bullous,[1]; 749 subjects,0.4%
same,SAE of severe cutaneous adverse reaction: drug eruption,[1]; 749 subjects,0.4%
same,SAE of severe cutaneous adverse reaction: stomatitis,[1]; 749 subjects,0.1%
same,SAE of severe cutaneous adverse reaction: toxic skin eruption,[1]; 749 subjects,0.1%
same,SAEs of severe cutaneous adverse reactions,[1]; 749 subjects,1.5%
same,SAEs of severe cutaneous adverse reactions,"[1]; of 749 subjects, EV monotherapy studies of urothelial carcinoma",11 subjects
same,severe cutaneous adverse reaction reports: SDRIFE,[2]; 15 patients,2 cases
same,severe cutaneous adverse reaction reports: Stevens-Johnson Syndrome (SJS),[2]; 15 patients,5 cases
same,severe cutaneous adverse reaction reports: blister,[2]; 15 patients,3 cases
same,severe cutaneous adverse reaction reports: dermatitis bullous,[2]; 15 patients,3 cases
same,severe cutaneous adverse reaction reports: dermatitis exfoliative,[2]; 15 patients,1 case
same,severe cutaneous adverse reaction reports: epidermal necrosis,[2]; 15 patients,1 case
same,severe cutaneous adverse reaction reports: exfoliative rash,[2]; 15 patients,1 case
same,severe cutaneous adverse reaction reports: oropharyngeal blistering,[2]; 15 patients,1 case
same,severe cutaneous adverse reaction reports: stomatitis,[2]; 15 patients,1 case
same,severe cutaneous adverse reaction reports: toxic epidermal necrolysis (TEN),[2]; 15 patients,1 case
same,patients with reports of severe cutaneous adverse reactions,"[2]; some had fatal outcomes, predominantly during the first cycle",15 patients
enfortumab vedotin [EV Mono],"pathological complete response (pCR), patients","[3]; 3 cycles neoadjuvant EV 1.25 mg/kg Days 1 and 8 of 3-week cycle, preliminary analysis of 22 patients",36%
same,Number of subjects who have recurrence or died,[3]; [8],5
same,"Subjects who have recurrence or died, figure in parentheses (share of N = 22)",[3]; [8],(22.7)
same,"PCR (no viable tumor at surgery), ypT0 and ypTis",[3]; [9],45.5% (ypT0
same,"PCR (no viable tumor at surgery), ypT0 only",[3]; [9],32% (ypT0
same,"pDS (non-muscle invasive disease at surgery), includes pCR",[3]; [9],50% (includes
same,EFS Rate at 6 months,[3]; [10],88.2%
same,"Event free-survival (EFS), 25th percentile",[3]; [10],"6.7, — months"
same,"Event free-survival (EFS), median",[3]; [10],not reached
same,"Event free-survival (EFS), observed min",[3]; [10],2.60 months
same,"Event free-survival (EFS), observed max","[3]; by investigator assessment, N = 22, + printed after value",≥ 12.32 months
same,EFS Rate at 12 months,"[3]; by investigator assessment, N = 22, one subject censored at study day 190 due to a data issue",60.5%
same,pCRR compared with rates seen with chemotherapy in cisplatin-eligible MIUC patients,"[3]; cisplatin-ineligible MIBC patients, neoadjuvant EV",compares favorably
same,"AECI Any infusion related reactions, ≥Grade 3",[4]; EV Mono N = 22,0 n
same,"AECI Any ocular disorder: Blurred vision, ≥Grade 3",[4]; EV Mono N = 22,0 n
same,"AECI Any ocular disorder: Corneal disorders, Any Grade",[4]; EV Mono N = 22,0 n
same,"AECI Any ocular disorder: Corneal disorders, ≥Grade 3",[4]; EV Mono N = 22,0 n
same,"AECI Any ocular disorder: Dry eye, ≥Grade 3",[4]; EV Mono N = 22,0 n
same,"AECI Any peripheral neuropathy, ≥Grade 3",[4]; EV Mono N = 22,0 n
same,Any TEAEs leading to bladder surgery not performed,[4]; EV Mono N = 22,0 n
same,EV-related TEAEs leading to bladder surgery not performed,[4]; EV Mono N = 22,0 n
same,EV-related TEAEs leading to death,[4]; EV Mono N = 22,0 n
same,RC-related TEAEs leading to death,[4]; EV Mono N = 22,0 n
same,TEAE (Table 27) Hyperglycaemia,"[4]; EV Mono N = 22, listed as EV",13.6%
same,TEAE (Table 27) Small intestinal obstruction,"[4]; EV Mono N = 22, listed as EV",9.1%
same,TEAE (Table 27) Urinary tract infection,"[4]; EV Mono N = 22, listed as EV",9.1%
same,patients with Grade 3 or higher TEAEs,[4]; EV monotherapy and RC+PLND,59.1%
same,tolerability of 3 cycles of neoadjuvant treatment,[4]; cisplatin-ineligible MIBC patients,well-tolerated
same,Grade 5 AE Acute Kidney Injury: Days from RC + PLND,[4]; in vivo,62 days
same,Grade 5 AE Acute Kidney Injury: Days from last dose of EV,[4]; in vivo,142 days
same,Grade 5 AE Cardiac Arrest: Days from RC + PLND,[4]; in vivo,15 days
same,Grade 5 AE Cardiac Arrest: Days from last dose of EV,[4]; in vivo,45 days
same,Grade 5 AE Saddle PE: Days from RC + PLND,[4]; in vivo,55 days
same,Grade 5 AE Saddle PE: Days from last dose of EV,[4]; in vivo,127 days
same,patients whose grade 5 AEs occurred >30 days after the end of study treatment,[4]; in vivo,2 pts
same,patients with grade 5 adverse events while on the study,[4]; in vivo,3 patients
same,observed safety profile of neoadjuvant EV monotherapy,[4]; patients in this study,consistent with the known safety profile of EV
same,Rash maculo-papular leading to EV discontinuation: AE onset after last EV dose,"[4]; subject completed Cycle 2, Gr3",^cSubject completed Cycle 2. AE onset occurred 4 days after last EV dose. (Gr3)
CT-011,response in treating acute myeloid leukemia (AML) at relapse,[5],failed to show response
pembrolizumab,pCR rate,"[6]; 3 cycles of 200 mg before RC, among 50 treated patients",42%
same,pCR rate in patients with PD L1 positive disease,[6]; 3 cycles of 200 mg before RC,54.3%
same,pathologic downstaging rate,[6]; 3 cycles of 200 mg before RC,65.7%
same,safety of neoadjuvant administration,[6]; 3 cycles of 200 mg before RC,safely administered
same,"pDS (non-muscle invasive disease at surgery), includes pCR","[6]; PURE-01, Pembrolizumab x 3, sample size 50",54% (includes
same,PCR (no viable tumor at surgery),"[6]; PURE-01, cisplatin eligible (n = 42) and ineligible (n = 8), Pembrolizumab x 3, sample size 50",42%
atezolizumab,"pCR, patients",[7]; [11],29%
same,safety findings,[7]; [11],no significant safety findings
same,"pCR, PD-L1-negative cohort",[7]; [12],16%
same,"pCR, patients with PD-L1-positive disease",[7]; [12],40%
same,patients down staged to non-muscle invasive disease,[7]; [12],39%
same,"PCR (no viable tumor at surgery), ypT0 + ypTis","[7]; ABACUS, cisplatin ineligible, Atezolizumab x 2, sample size 88",31% (ypT0 +

# Reference: patent US20250064956A1, “METHODS FOR TREATING MUSCLE INVASIVE UROTHELIAL CANCER OR MUSCLE INVASIVE BLADDER CANCER WITH ANTIBODY DRUG CONJUGATES (ADC) THAT BIND TO 191P4D12 PROTEINS” (AGENSYS, INC., priority 2022, published 2025)
